In patent publication EP1562972B1:
Each block holds one substance with its values, some of them ahead of it.

Tests used:
[1] = molecular target: human neonatal Fc receptor (FcRn), recombinant GPI-linked, on NS0 cells (human) (UniProt P55899); test: competition flow cytometry, NS0 cells with human FcRn, vs biotinylated HuEP5C7-IgG2M3, FSB pH 6.0
[2] = molecular target: human neonatal Fc receptor (FcRn), recombinant GPI-linked, on NS0 cells (human) (UniProt P55899); test: competition flow cytometry, NS0 cells with human FcRn, vs biotinylated HuEP5C7-IgG2M3, FBB pH 6.0
[3] = molecular target: human neonatal Fc receptor (FcRn), recombinant GPI-linked, on NS0 cells (human) (UniProt P55899); test: competition flow cytometry, NS0 cells with human FcRn, vs biotinylated OST577-IgG1, FBB pH 6.0
[4] = molecular target: rhesus neonatal Fc receptor (FcRn), recombinant GPI-linked, on NS0 cells (rhesus) (UniProt H9Z6D2); test: competition flow cytometry, NS0 cells with rhesus FcRn, vs biotinylated OST577-IgG1, FBB pH 6.0
[5] = molecular target: rhesus neonatal Fc receptor (FcRn), recombinant GPI-linked, on NS0 cells (rhesus) (UniProt H9Z6D2); test: competition flow cytometry, NS0 cells with rhesus FcRn, vs biotinylated OST577-IgG2M3, FBB pH 6.0
[6] = molecular target: human neonatal Fc receptor (FcRn), recombinant GPI-linked, on NS0 cells (human) (UniProt P55899); test: competition flow cytometry, NS0 cells with human FcRn, vs biotinylated OST577-IgG2M3, FBB pH 6.0

- IC50 [1]: 3.4 µg/mL
- IC50 [2]: 2.97 µg/mL
Substance: OST577-IgG2M3 M428F mutant (antibody)

- IC50 [3]: 0.896 µg/mL
- IC50 [4]: 0.629 µg/mL
- Relative Binding (ratio (IC50 wild-type / IC50 mutant)) [4]: 14
Substance: OST577-IgG1 M428L mutant (antibody)

- IC50 [1]: 32 µg/mL
- Relative Binding (ratio (IC50 wild-type / IC50 mutant)) [1]: 0.33
Substance: OST577-IgG2M3 L314Q mutant (antibody)

- IC50 [1]: 102 µg/mL
Substance: OST577-IgG2M3 L314R mutant (antibody)

- IC50 [3]: 3.44 µg/mL
- Relative Binding (ratio (IC50 wild-type / IC50 mutant)) [3]: 4
Substance: OST577-IgG1 M428F mutant (antibody)

- IC50 [5]: 1.92 µg/mL
- Relative Binding (ratio (IC50 wild-type / IC50 mutant)) [5]: 7.7
- IC50 [6]: 1.79 µg/mL
- Relative Binding (ratio (IC50 wild-type / IC50 mutant)) [6]: 6.7
Substance: OST577-IgG2M3 M428L mutant (antibody)

- IC50 [3]: 0.351 µg/mL
- Relative Binding (ratio (IC50 wild-type / IC50 mutant)) [3]: 29
- IC50 [4]: 0.236 µg/mL
- Relative Binding (ratio (IC50 wild-type / IC50 mutant)) [4]: 37
Substance: OST577-IgG1 T250Q/M428L double mutant (antibody)

- IC50 [1]: 68.7 µg/mL
- Relative Binding (ratio (IC50 wild-type / IC50 mutant)) [1]: 0.16
Substance: OST577-IgG2M3 L314A mutant (antibody)

- IC50 [5]: 0.554 µg/mL
- Relative Binding (ratio (IC50 wild-type / IC50 mutant)) [5]: 27
- IC50 [6]: 0.43 µg/mL
Substance: OST577-IgG2M3 T250Q/M428L double mutant (antibody)

- IC50 [1]: 20.2 µg/mL
- Relative Binding (ratio (IC50 wild-type / IC50 mutant)) [1]: 0.53
Substance: OST577-IgG2M3 L314W mutant (antibody)
